Test results taken from the supplement of paper PMC11865577.

Legend:
Test in all cases: pull-down binding Z-score (relative to library population); higher = stronger binding
[1] = test system: G-clamp-N3 (biotin conjugate); details: RNA library: Library-1 (pre-miRNA loops + repeats)
Procedure, shortened: (§1)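 Biotin-conjugated small molecule (100 pmol) on streptavidin beads was incubated with 1 μg of heat-folded Cy5- or Cy3-end-labelled RNA library in phosphate/NaCl/KCl buffer at 25 °C for 60 min. Following three washes, RNA was eluted with hot SDS and hybridised at 55.5 °C for 20 h to a DNA barcode microarray. The binding value is a Z-score computed from the library mean and standard deviation, after subtraction of beads without compound and averaging of barcoded replicate probes with the highest and lowest excluded.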

[2] = test system: TO-N3-2 (biotin conjugate); details: RNA library: Library-2
Procedure, shortened: as §1

TO-N3 (biotin conjugate) = details: RNA library: Library-2
Procedure, shortened: as §1

[3] = test system: TO-3-N3-2 (biotin conjugate); details: RNA library: Library-2
Procedure, shortened: as §1

[4] = test system: TO-3-N3 (biotin conjugate); details: RNA library: Library-2
Procedure, shortened: as §1

| Sequence | pull-down binding Z-score [1] | pull-down binding Z-score [2] | pull-down binding Z-score (TO-N3 (biotin conjugate)) | pull-down binding Z-score [3] | pull-down binding Z-score [4] |
| --- | --- | --- | --- | --- | --- |
| GCCUCCUGGAUCUCUAGGUCUCAGGGC [hsa-mir-6744] | -0.189 | 0.118 | -0.272 | -0.302 | -0.282 |
| CAGUGAGCCAAGAUCGUGCCACUG [hsa-mir-1273d] | -0.48 | -0.0234 | -0.147 | -0.179 | -0.172 |
| UUUUGAAAGUAACUUGGCGAAA [hsa-mir-548ad] | 1.69 | -0.299 | -0.0602 | -0.118 | -0.179 |
| AAAUAGUUUCUAUCAAAAUAGUUU [hsa-mir-3668] | -1.13 | -1.14 | -0.931 | -0.362 | -0.791 |
| GUCACCAGCCCUCAUGUACUUGUGAC [hsa-mir-6820] | -1.09 | -0.281 | 0.222 | -0.289 | 0.335 |
| AGAUAGUGAAGUAGAUUAGCAUCUACU [hsa-mir-18a] | -0.59 | 0.0251 | -0.387 | 0.201 | -0.484 |
| GACAGGGAAAAGCACACAAGGAACUUGUC [hsa-mir-3909] | 0.557 | -0.0273 | -0.0969 | 0.112 | -0.138 |
| CUCAUGUAAACUAAAACAUGAU [hsa-mir-508] | -1.91 | -0.891 | -0.229 | -0.244 | 0.0647 |
| AGAGAUGAGCAUAAAGUUUUU [hsa-mir-6086] | -1.36 | -0.389 | -0.104 | -0.12 | 0.0616 |
| CUUUGUGAUUUUAUGAGAACAAAG [hsa-mir-3173] | 0.801 | -1.27 | -1.22 | -0.486 | -0.938 |
| UGUCAUUACUUUUAAUGGUA [hsa-mir-548h-1] | -1.35 | -1.24 | -0.56 | -0.357 | -0.328 |
| GGGCAUUCCGGAUAGGCCGAGAAAGUGUUG [hsa-mir-6723] | 0.79 | 1.42 | 1.67 | 0.568 | 1.45 |
| UGUUUGUGUCUAAACUAUCAAACG [hsa-mir-122] | -0.679 | -0.625 | -0.332 | -0.158 | -0.183 |
| GCAUAAAAACAACUUUUGGGGGACAGGUAUGUUUUCUUGC [hsa-mir-5047] | 0.0757 | 0.797 | 2.3 | 2.38 | 2.96 |
| GUUACUGUGGGAACUGGAGGUAAC [hsa-mir-132] | 2.34 | 0.708 | 1.1 | 0.489 | 0.839 |
| CUGCAGAACAUUGCAG [hsa-mir-4310] | 0.0291 | -1.08 | -0.727 | -0.408 | -0.487 |
| ACGAGAGUGAGUAGCAGGUCUC [hsa-mir-128-2] | 2.31 | 1.51 | 0.627 | 0.361 | -0.117 |
| AUCAGGCAGUUUCCUG [hsa-mir-4289] | -1.29 | 0.0394 | -0.16 | 0.101 | -0.305 |
| AUGGGGCAGCUGGGAUGGUCCAAAAGGGUGGCCUCA [hsa-mir-1226] | 1.14 | 1.17 | 1.05 | 0.406 | 0.729 |

| Sequence | pull-down binding Z-score [1] | pull-down binding Z-score [2] | pull-down binding Z-score (TO-N3 (biotin conjugate)) | pull-down binding Z-score [3] | pull-down binding Z-score [4] |
| --- | --- | --- | --- | --- | --- |
| UGUUGACUGAAUAAUAAACA [hsa-mir-3139] | -1.29 | -0.846 | -1.23 | -0.319 | -0.946 |
| ACACUUCCUAUAUGUAUCCACAUAUAUAUAGU [hsa-mir-568] | 0.00925 | -0.936 | -0.69 | -0.0673 | -0.562 |
| GUCCAUUAGGCUUUGUUAUGGAAACUUCUCCUGAUC [hsa-mir-635] | -0.608 | 0.875 | 0.6 | 0.607 | 0.517 |
| CAGAGGGAGGCCAAGAAGACCUCUG [hsa-mir-4793] | 2.73 | 0.354 | -0.402 | -0.445 | -0.656 |
| UCUUAGACUAUUACAAGA [hsa-mir-3672] | -0.633 | -0.526 | 0.614 | 0.0159 | 0.922 |
| CUUUGUCUGACUACAAUAUUCAAAAG [hsa-mir-4426] | -1.96 | -0.569 | -0.0832 | 0.0275 | 0.0486 |
| UUUUCAUGACAACCCUAUAUGGGAAAAUGUUGUGAAAA [hsa-mir-3646] | -0.346 | -1.78 | -1.1 | -0.448 | -0.839 |
| GGUUCUCAGUCAGAACC [hsa-mir-6813] | 0.755 | -1.21 | -0.372 | -0.346 | -0.0211 |
| CUAAUCUCUUAGCACUGAAGAUUAG [hsa-mir-4671] | -0.0111 | -0.473 | -0.125 | -0.253 | 0.0266 |
| ACCAUAGUCAUAAGUUAGGAGAUGUUAGAGCUGUGAGU [hsa-mir-4286] | 0.233 | 0.807 | -0.108 | 0.296 | -0.464 |
| GGGAGGUAAGAAGUCUCUGACUCCU [hsa-mir-5193] | 0.481 | -0.358 | -0.44 | -0.261 | -0.307 |
| GGAUAAGAAUCAGUCAC [hsa-mir-217] | -0.462 | -0.147 | -0.415 | 0.259 | -0.334 |
| GAAUUCGAUUCAUCAAAGCGAGUC [hsa-mir-485] | -0.234 | 0.225 | 0.0539 | 0.143 | -0.128 |
| CUGAACCCGUGGGUGAGGAGUGCAG [hsa-mir-4690] | 0.824 | 0.925 | 0.515 | 0.0142 | 0.367 |
| CACAGAGUAAGCAUCAAUAGCAUUGGCAAGUUGAACUGAGCUGUC [hsa-mir-6895] | -0.438 | 1.37 | 0.466 | -0.0293 | -0.393 |
| UUUGCCAUUAAAAGUAACGACAAA [hsa-mir-548a-1] | -0.965 | -0.81 | -1.11 | -0.389 | -0.873 |
| AUCUGAAUGAUCUCAGC [hsa-mir-626] | -1.32 | 0.364 | 0.677 | 0.105 | 0.58 |
| GGUUGUUUAAUUAGGAACCAACU [hsa-mir-190b] | -0.019 | -0.593 | -0.293 | 0.0266 | -0.247 |
